Values joined by “and” are separate entries in the source; they are usually repeats but may differ in a detail not shown here. Equal entries are not always repeated.
Biological target: 1-Aminocyclopropane-1-carboxylic acid (ACC) oxidase ACCO1 from apple (Malus domestica), His-Tag fusion protein (apple (Malus domestica))
Assay: SEC; Sephadex G-200 column chromatography; activity of the monomer, dimer and tetramer forms; data not shown

With “1-Aminocyclopropane-1-carboxylic acid (ACC) oxidase ACCO1 from apple (Malus domestica), His-Tag fusion protein (enzyme)” the stoichiometry N was 2 and 4.
